Assay results: patent WO2016059602A2 (dated 2016)
Blank lines part the entries; values can stand above or below the binder they belong to.

Assays:
human HER3 receptor = human HER3 receptor (human, UniProt P21860 20-1342); experiment: cell-based or functional assay
[1] = biological target: T1, full-length rat HER3 extracellular domain (ECD) (rat, UniProt Q62799 20-643); experiment: BIACORE, antibody captured on protein A, rat HER3 ECD as analyte, 25 C, 1:1 model
T1 construct: extracellular domain; also called Rat HER3 ECD
T1 sequence (Q62799 20-643): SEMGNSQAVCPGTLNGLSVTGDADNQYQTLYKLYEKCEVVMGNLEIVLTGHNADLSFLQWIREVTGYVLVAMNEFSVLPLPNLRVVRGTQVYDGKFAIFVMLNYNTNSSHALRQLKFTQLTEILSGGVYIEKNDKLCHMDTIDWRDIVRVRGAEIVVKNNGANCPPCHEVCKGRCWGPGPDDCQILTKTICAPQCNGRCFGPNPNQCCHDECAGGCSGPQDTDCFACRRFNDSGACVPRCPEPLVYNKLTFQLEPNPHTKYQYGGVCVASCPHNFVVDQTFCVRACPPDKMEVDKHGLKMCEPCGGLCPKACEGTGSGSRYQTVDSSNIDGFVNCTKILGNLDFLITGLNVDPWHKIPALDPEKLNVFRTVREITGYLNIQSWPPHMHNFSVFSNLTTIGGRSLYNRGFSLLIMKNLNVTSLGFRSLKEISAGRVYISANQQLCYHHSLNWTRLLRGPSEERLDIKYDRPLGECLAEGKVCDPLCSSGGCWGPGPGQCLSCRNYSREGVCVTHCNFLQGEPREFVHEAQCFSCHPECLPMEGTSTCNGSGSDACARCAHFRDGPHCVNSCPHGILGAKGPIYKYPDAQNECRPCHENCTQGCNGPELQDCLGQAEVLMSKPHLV

[2] = biological target: T2, full-length human HER3 extracellular domain (ECD) (human, UniProt P21860 20-643); experiment: BIACORE, antibody captured on protein A, HER3 ECD as analyte, 25 C, 1:1 model
T2 construct: also called human HER3 ECD; HER3 ECD full length
T2 sequence (P21860 20-643): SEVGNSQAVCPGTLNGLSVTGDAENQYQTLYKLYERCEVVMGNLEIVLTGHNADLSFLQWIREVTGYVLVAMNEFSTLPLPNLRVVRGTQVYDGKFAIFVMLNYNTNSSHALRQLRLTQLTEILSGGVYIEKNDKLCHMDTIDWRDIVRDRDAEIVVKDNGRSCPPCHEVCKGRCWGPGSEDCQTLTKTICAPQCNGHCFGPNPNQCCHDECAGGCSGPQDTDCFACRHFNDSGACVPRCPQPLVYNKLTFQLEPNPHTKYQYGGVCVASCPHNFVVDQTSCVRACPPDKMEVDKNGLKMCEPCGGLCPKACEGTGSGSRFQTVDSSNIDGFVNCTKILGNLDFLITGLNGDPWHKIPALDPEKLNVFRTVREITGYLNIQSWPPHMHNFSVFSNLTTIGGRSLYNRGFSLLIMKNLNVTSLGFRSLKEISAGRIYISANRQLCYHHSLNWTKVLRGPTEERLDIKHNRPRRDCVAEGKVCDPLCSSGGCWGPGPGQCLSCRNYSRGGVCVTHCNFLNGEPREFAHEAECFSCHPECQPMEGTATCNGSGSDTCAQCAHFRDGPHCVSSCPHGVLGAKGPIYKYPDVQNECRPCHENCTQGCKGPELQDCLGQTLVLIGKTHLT

Sequence of human HER3 receptor (P21860 20-1342 limits assumed): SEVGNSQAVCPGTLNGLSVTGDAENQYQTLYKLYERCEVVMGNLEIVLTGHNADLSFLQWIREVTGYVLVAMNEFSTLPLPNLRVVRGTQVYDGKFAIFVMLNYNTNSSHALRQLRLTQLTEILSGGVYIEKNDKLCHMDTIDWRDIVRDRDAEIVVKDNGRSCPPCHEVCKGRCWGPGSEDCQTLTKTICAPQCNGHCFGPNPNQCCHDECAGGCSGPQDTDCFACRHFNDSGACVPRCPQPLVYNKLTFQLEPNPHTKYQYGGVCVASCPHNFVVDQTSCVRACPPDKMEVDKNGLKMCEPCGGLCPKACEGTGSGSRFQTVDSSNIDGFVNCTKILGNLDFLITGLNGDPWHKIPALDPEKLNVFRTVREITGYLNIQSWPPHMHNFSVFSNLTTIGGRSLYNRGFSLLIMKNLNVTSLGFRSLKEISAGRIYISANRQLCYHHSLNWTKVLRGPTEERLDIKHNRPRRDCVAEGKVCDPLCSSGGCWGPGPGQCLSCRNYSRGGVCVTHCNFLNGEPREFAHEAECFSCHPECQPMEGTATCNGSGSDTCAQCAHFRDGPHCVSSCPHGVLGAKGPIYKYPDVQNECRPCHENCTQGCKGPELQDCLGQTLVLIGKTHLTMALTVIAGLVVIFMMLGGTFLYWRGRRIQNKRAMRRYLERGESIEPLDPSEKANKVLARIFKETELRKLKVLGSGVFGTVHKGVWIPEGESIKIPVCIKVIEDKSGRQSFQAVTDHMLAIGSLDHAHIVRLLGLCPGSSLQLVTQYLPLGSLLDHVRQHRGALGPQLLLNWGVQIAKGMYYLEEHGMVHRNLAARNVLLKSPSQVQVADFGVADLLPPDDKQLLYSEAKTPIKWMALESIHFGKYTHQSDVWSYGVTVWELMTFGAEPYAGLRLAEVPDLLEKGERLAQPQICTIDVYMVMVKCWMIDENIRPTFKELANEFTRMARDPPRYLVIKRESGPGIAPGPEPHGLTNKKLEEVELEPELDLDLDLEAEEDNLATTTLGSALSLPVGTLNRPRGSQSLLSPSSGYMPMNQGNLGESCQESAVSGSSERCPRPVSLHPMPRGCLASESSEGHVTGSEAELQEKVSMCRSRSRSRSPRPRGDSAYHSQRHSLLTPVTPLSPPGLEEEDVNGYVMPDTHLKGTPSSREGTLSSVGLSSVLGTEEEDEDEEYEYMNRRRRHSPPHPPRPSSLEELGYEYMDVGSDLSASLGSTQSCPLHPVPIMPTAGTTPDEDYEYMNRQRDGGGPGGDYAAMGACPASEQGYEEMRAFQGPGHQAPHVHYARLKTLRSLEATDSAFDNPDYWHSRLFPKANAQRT

B2: murine 15D5 antibody (M5.15D5.2A1.1H10) (antibody, V domains shown)
VH: EFQLQQSGPELVKPGASVKISCKASGYSFTDYNMNWVKQNNGKSLEWIGGINPNYGTTVYNQKFKGKATLTVDQSSSTAYMQLVSLTSEDSAVYYCARMTTIVPFDYWGQGTTLTVSS
VL: DIQMTQTTFSLSASLGDRVTISCRASQDISNYLNWYQQKPDGTVKLLIYYTSTLHSGVPSRFSGSGSGTDYFLTIRNLEEEDIATYFCQQGYTLPWTFGGGTKLDIK
Phospho-HER3 ELISA IC50, heregulin induced HER3 phosphorylation, BT-474 cells (human HER3 receptor): 0.12 µg/mL
Phospho-HER3 ELISA IC50, heregulin induced HER3 phosphorylation, BxPC3 cells (human HER3 receptor): 0.0541 µg/mL
Phospho-HER3 ELISA IC50, heregulin induced HER3 phosphorylation, CHL-1 cells (human HER3 receptor): 0.138 µg/mL
Phospho-HER3 ELISA IC50, heregulin induced HER3 phosphorylation, MCF7 cells (human HER3 receptor): 0.0593 µg/mL
Phospho-HER3 ELISA IC50, heregulin induced HER3 phosphorylation, N87 cells (human HER3 receptor): 0.0533 µg/mL
Phospho-HER3 ELISA IC50, heregulin induced HER3 phosphorylation, SK-BR-3 cells (human HER3 receptor): 0.0191 µg/mL

B4: humanized 1D9 Fc disabled antibody (antibody, V domains shown)
VH: QVQLVQSGAEVKKPGASVKVSCKASGYTFTSYWMHWVRQAPGQGLEWMGVIDPSDGYSHYNQKFKGKVTLTVDTSISTAYMELSRLRSDDTAVYYCAGGLAGTLDYWGQGTTVTVSS
VL: DIQMTQSPSSLSASVGDRVTITCRSSQSIVHSSGNTYLQWFQQKPGKAPKLLIYKVSNRFSGVPSRFSGSGSGTDFTLTISSLQPEDFAVYYCFQGSHVPWTFGQGTKLEIKR
notes: also called humanized 1D9 H6L2 Fc disabled antibody
Phospho-HER3 ELISA IC50, heregulin induced HER3 phosphorylation, BxPC3 cells (human HER3 receptor): 0.0107 µg/mL
Phospho-HER3 ELISA IC50, heregulin induced HER3 phosphorylation, CHL-1 cells (human HER3 receptor): 0.0399 µg/mL
Phospho-HER3 ELISA IC50, heregulin induced HER3 phosphorylation, N87 cells (human HER3 receptor): 0.0297 µg/mL
Phospho-HER3 ELISA IC50, heregulin induced HER3 phosphorylation, SK-BR-3 cells (human HER3 receptor): 0.0044 µg/mL
Kd [2]: 4.49 nM
koff [2]: 0.00122 s⁻¹
kon [2]: 271000 M⁻¹ s⁻¹

The next lines start with the values.

IC50, ligand (EGF, betacellulin or heregulin) induced HER3 receptor phosphorylation, SK-BR-3 cells (human HER3 receptor): ~0.003 µg/mL
Phospho-HER3 ELISA IC50, heregulin induced HER3 phosphorylation, BT-474 cells (human HER3 receptor): 0.0223 µg/mL
Phospho-HER3 ELISA IC50, heregulin induced HER3 phosphorylation, BxPC3 cells (human HER3 receptor): 0.0068 µg/mL
Phospho-HER3 ELISA IC50, heregulin induced HER3 phosphorylation, CHL-1 cells (human HER3 receptor): 0.0406 µg/mL
Phospho-HER3 ELISA IC50, heregulin induced HER3 phosphorylation, MCF7 cells (human HER3 receptor): 0.0104 µg/mL
Phospho-HER3 ELISA IC50, heregulin induced HER3 phosphorylation, N87 cells (human HER3 receptor): 0.0204 µg/mL
Phospho-HER3 ELISA IC50, heregulin induced HER3 phosphorylation, SK-BR-3 cells (human HER3 receptor): 0.0032 µg/mL
B1: murine 1D9 antibody (M5.1D9.1F5) (antibody, V domains shown)
VH: QVQLQQPGAELVRPGTSVKLSCKASGYTFTSYWMHWVKQRPGQGLEWIGVIDPSDGYSHYNQKFKGKATLTVDTSSSTAYMQLSSLTSEDSAVYYCAGGLAGTLDYWGQGTTLTVSS
VL: DVLMTQTPLSLPVSLGDQASISCRSSQSIVHSSGNTYLQWFLQKPGQSPKLLISKVSNRFSGVPDRFSGSGSGTDFTLRISRVEAEDLGLYYCFQGSHVPWTFGGGTKLEIK

Kd [1]: 3.37 nM
koff [1]: 0.0011 s⁻¹
kon [1]: 326000 M⁻¹ s⁻¹
Phospho-HER3 ELISA IC50, heregulin induced HER3 phosphorylation, BxPC3 cells (human HER3 receptor): 0.0056 µg/mL
Phospho-HER3 ELISA IC50, heregulin induced HER3 phosphorylation, CHL-1 cells (human HER3 receptor): 0.0282 µg/mL
Phospho-HER3 ELISA IC50, heregulin induced HER3 phosphorylation, N87 cells (human HER3 receptor): 0.0175 µg/mL
Phospho-HER3 ELISA IC50, heregulin induced HER3 phosphorylation, SK-BR-3 cells (human HER3 receptor): 0.0034 µg/mL
Kd [2]: 2.01 nM
koff [2]: 0.00223 s⁻¹
kon [2]: 1.11e+06 M⁻¹ s⁻¹
B3: humanized 1D9 POTELLIGENT antibody (antibody, human IgG1, kappa, V domains shown)
VH: B4 VH
VL: B4 VL
notes: also called humanized 1D9 H6L2 POTELLIGENT antibody; humanized POTELLIGENT antibody

Phospho-HER3 ELISA IC50, heregulin induced HER3 phosphorylation, BxPC3 cells (human HER3 receptor): 0.0116 µg/mL
Phospho-HER3 ELISA IC50, heregulin induced HER3 phosphorylation, CHL-1 cells (human HER3 receptor): 0.0365 µg/mL
Phospho-HER3 ELISA IC50, heregulin induced HER3 phosphorylation, N87 cells (human HER3 receptor): 0.0218 µg/mL
Phospho-HER3 ELISA IC50, heregulin induced HER3 phosphorylation, SK-BR-3 cells (human HER3 receptor): 0.0036 µg/mL
B5: humanized 1D9 antibody (antibody, human IgG1, kappa, V domains shown)
VH: B4 VH
VL: B4 VL
